We go through 2 molecules from patent US20030235860A1, “Interactions between AR, ER, TR2, and TR4” (priority 1999, published 2003).

In one experiment the target is T1, PR (Homo sapiens, UniProt P06401).
T1 construct: expressed in transfected cells; host or cells: H1299 (pSG5-PR)
T1 sequence (P06401 1-933): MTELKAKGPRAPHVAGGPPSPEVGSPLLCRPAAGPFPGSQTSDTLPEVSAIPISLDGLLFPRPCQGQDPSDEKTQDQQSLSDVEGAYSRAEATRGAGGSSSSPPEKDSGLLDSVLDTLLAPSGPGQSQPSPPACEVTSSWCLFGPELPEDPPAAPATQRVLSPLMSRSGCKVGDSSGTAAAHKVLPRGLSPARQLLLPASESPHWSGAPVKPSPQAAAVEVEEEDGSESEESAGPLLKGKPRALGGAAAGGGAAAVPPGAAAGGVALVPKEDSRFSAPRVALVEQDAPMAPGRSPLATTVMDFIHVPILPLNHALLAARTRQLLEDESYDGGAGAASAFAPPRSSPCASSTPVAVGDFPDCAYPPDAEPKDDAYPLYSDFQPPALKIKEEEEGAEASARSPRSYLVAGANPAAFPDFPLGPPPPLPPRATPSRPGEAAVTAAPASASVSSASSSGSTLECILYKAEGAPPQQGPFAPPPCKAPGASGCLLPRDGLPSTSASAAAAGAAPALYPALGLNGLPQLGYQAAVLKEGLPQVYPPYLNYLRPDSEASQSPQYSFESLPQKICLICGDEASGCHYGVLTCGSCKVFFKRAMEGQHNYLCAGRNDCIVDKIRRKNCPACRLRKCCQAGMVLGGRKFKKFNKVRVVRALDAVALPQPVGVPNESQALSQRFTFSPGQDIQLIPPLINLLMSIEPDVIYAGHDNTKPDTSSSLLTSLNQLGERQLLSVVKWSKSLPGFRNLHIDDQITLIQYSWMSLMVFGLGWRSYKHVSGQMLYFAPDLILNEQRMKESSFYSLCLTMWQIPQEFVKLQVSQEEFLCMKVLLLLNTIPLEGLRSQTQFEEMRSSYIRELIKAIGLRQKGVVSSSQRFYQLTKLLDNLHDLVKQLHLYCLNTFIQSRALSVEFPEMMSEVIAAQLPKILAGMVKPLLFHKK
Description: PR-mediated transactivation (MMTV reporter). The class given is cell-based.

Another experiment deals with T2, ER-ERE (Homo sapiens, UniProt P03372).
T2 construct: Human full-length ER was inserted into the EcoRI site of pSG5 to produce pSG5-ER; host or cells: TNT coupled reticulocyte lysate, in vitro translation
T2 sequence (P03372 1-595): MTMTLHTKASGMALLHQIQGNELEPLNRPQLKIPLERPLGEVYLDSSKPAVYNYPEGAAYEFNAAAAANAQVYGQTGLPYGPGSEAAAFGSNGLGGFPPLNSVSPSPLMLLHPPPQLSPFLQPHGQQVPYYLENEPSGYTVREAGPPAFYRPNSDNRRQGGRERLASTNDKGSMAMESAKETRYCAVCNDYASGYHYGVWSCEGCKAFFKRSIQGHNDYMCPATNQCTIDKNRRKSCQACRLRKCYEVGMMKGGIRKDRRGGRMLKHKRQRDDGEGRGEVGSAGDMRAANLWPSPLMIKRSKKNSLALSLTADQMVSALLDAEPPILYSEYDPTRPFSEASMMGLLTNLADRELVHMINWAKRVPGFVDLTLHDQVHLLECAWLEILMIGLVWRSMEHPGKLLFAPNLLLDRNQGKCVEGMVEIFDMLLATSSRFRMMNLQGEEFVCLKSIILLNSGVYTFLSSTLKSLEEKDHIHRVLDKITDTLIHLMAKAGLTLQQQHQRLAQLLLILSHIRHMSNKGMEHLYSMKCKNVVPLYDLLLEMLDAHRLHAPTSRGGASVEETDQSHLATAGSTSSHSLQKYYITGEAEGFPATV
Description: EMSA with ERE probe. The class given is binding. On the technique in general: A gel shift assay detects complexes by their altered migration in electrophoresis.

The subject of a further experiment is PSA. Description: Northern blot of endogenous PSA in LNCaP cells. In kind it is cell-based, human. The protocol: Total RNA from the DHT-treated transfected LNCaP cells was prepared by the ultracentrifugation method as described. Lee, et al., J: Biol. Chem. 273, 13437-13443 (1998). The probe was obtained from exon 3 of PSA gene and labeled with a-32p dCTP.
To rule out the potential artificial effects linked to transfected reporter assays, the expression of endogenous prostate specific antigen (PSA, an androgen target that is widely used as a marker for prostate cancer progression) in LNCaP cells was measured by Northern blot analysis. Total RNA (25 μg) from LNCaP cells, which were transfected with either pCMX-TR4 or pCMX vector using SuperFect (Qiagen), was applied into a formamide RNA gel, then transferred onto a Nylon membrane, and then hybridized with a 32P-PSA gene fragment from the exon 3. P-actin was used as an internal control. […] The level of secreted PSA protein in the medium measured by ELISA, also confirmed this conclusion. This in vivo TR4-mediated suppressive effect strongly supports the above reporter assays.
Total RNA from transfected LNCaP cells was prepared using TRIZOL reagents (Life Technology) as instructed by manufacturer. The probe was obtained from the PSA gene by PCR and labeled with 32P dCTP. Northern hybridization was performed as described previously [Mu X. M. et al. (2002) J Biol Chem 275:23877-23883].

The subject of the next experiment is MCF-7-TR4 cells. Put plainly: MCF-7 cells growth assay (cell counting). Particulars: MCF-7-TR4 cells (E2 also in MCF-7-pBIG); 10 nM E2; Dox. In kind it is cell-based. The protocol: MCF-7-TR4 and MCF-7-pBIG cells, which were deprived of estrogen by culturing in phenol-free DMEM medium supplement with 10% charcol-stripped FBS for 4 days, were plated at 10^4 cells/well into 24-well plate. […] Cells were trypsinized at the specified time points and counted with a hemocytometer to determine cell density per sample.

B1: TR4: human testicular orphan nuclear receptor 4, SEQ ID NO:16; expressed from plasmid or in vitro translated (protein)
chain: MTSPSPRIQIISTDSAVASPQRIQGSEPASGPLSVFTSLNKEKIVTDQQTGQKIQIVTAVDASGSPKQQFILTSPDGAGTGKVILASPETSSAKQLIFTTSDNLVPGRIQIVTDSASVERLLGKTDVQRPQVVEYCVVCGDKASGRHYGAVSCEGCKGFFKRSVRKNLTYSCRSSQDCIINKHHRNRCQFCRLKKCLEMGMKMESVQSERKPFDVQREKPSNCAASTEKIYIRKDLRSPLIATPTFVADKDGARQTGLLDPGMLVNIQQPLIREDGTVLLATDSKAETSQGALGTLANVVTSLANLSESLNNGDTSEIQPEDQSASEITRAFDTLAKALNTTDSSSSPSLADGIDTSGGGSIHVISRDQSTPIIEVEGPLLSDTHVTFKLTMPSPMPEYLNVHYICESASRLLFLSMHRARSIPAFQGLGQDCNTSLVRACWNELFTLGLAQCAQVMSLSTILAAIVNHLQNSIQEDKLSGDRIKQVMEHIWKLQEFCNSMANWDIDGYEYAYLKAIVLFSPDHPGLTSTSQIEKFQEKAQMELQDYVQKTYSEDTYRLARILVRLPALRLMSSNITEELFFTGLIGNVSIDSIIPYILKMETAEYNGQITGVSL
Take B1: in the experiment with PR (H1299 cells, 10 nM progesterone, increasing TR4), the “PR-mediated MMTV-LUC reporter activity” value is given as “failed to suppress”. In addition, in the experiment with ER-ERE (increasing amounts of in vitro expressed TR4), the “ER-[32P]ERE binding band” value is on record as “reduced”. Moreover, the “Expression of endogenous PSA transcript” value with PSA (LNCaP cells transfected with pCMX-TR4, absence or presence of 10 nM DHT) is “clearly repress”. Further, the “Cell growth (cell number)” value with MCF-7-TR4 cells is on record as “repress”.

B2: TR2: human testicular orphan nuclear receptor 2, 603 amino acids (protein, UniProt P13056 1-603, looked up)
chain: MATIEEIAHQIIEQQMGEIVTEQQTGQKIQIVTALDHNTQGKQFILTNHDGSTPSKVILARQDSTPGKVFLTTPDAAGVNQLFFTTPDLSAQHLQLLTDNSPDQGPNKVFDLCVVCGDKASGRHYGAVTCEGCKGFFKRSIRKNLVYSCRGSKDCIINKHHRNRCQYCRLQRCIAFGMKQDSVQCERKPIEVSREKSSNCAASTEKIYIRKDLRSPLTATPTFVTDSESTRSTGLLDSGMFMNIHPSGVKTESAVLMTSDKAESCQGDLSTLANVVTSLANLGKTKDLSQNSNEMSMIESLSNDDTSLCEFQEMQTNGDVSRAFDTLAKALNPGESTACQSSVAGMEGSVHLITGDSSINYTEKEGPLLSDSHVAFRLTMPSPMPEYLNVHYIGESASRLLFLSMHWALSIPSFQALGQENSISLVKAYWNELFTLGLAQCWQVMNVATILATFVNCLHNSLQQDKMSTERRKLLMEHIFKLQEFCNSMVKLCIDGYEYAYLKAIVLFSPDHPSLENMEQIEKFQEKAYVEFQDYITKTYPDDTYRLSRLLLRLPALRLMNATITEELFFKGLIGNIRIDSVIPHILKMEPADYNSQIIGHSI
modifications: full-length
notes: human testicular orphan nuclear receptor 2, 603 amino acids
Turning to B2, the “PR-mediated transactivation (MMTV-CAT)” value in the experiment with PR (H1299 cells, 10^−8 M progesterone, increasing TR2) is recorded as “little effect”. Further, in the experiment with PR (T47D cells, Example 2), the “PR-mediated transcription (MMTV-CAT)” value is reported as “marginal effect”. For the same molecule, the “Intensity of ER-ERE supershift” value in the experiment with ER-ERE (increasing amount of TR2, absence or presence of 1 μM E2, Example 1) is reported as “decreased”. Also, the “Intensity of ER-ERE complexes” value with ER-ERE (increasing amounts of TR2, absence or presence of 10 nM E2, Example 2) is given as “decreased”. Besides, the “PSA mRNA expression” value in the experiment with PSA (LNCaP cells, 10 nM DHT, pCMV-TR2, Example 4) is reported as “suppresses”.
